B1: 4T0570 (antibody, V domains shown)
VH: QVQLVQSGAEVKKPGASIKVSCKASGYTFVSKYIHWVRQAPGQGLEWMGIINPSGGRTDYAQKFQGRVTISRDTSTSTVYMELSSLRSEDTAFYYCARALPFRVTGARDVFDIWGQGTMVTVSS
VL: DIQMTQSPSSLSASVGDRVTITCRASQGISTNLAWFQQRPGKAPKSLVYAASTLQNGVPSKFSGSGSGTDFTLTISSLQPEDFATYYCQQYYTYPLTFGGGTKVEIK
B2: 4T0578 (antibody, V domains shown)
VH: EVQLVESGGALVQPGGSLRLSCAASGFTFSRYDIHWVRQASGKGLEWVSAIGKAGDAYYAGSVRGRFTISRENAKNSLYLQMNSLRAGDTAVYYCARASFGDLYFDLWGRGTLVTVSS
VL: DIVMTQSPDSLAVSLGERATINCKSSQSLLHSSNNKNSVAWYQQKPGQPPKLLIYWASTREFGVPDRFSGSGSGTDFALTISSLQAEDVAVYVCQQYYNSPLTFGPGTKVDIK
B3: 3T0265 (antibody, V domains shown)
VH: EVQLVESGGNLAKPGGSLRLSCAASGFTFSDAWMTWVRQAPGKGLEWVGRIKSNADGGATEYAAPVRGRFTISRDDSRSSLFLQMNSLKTEDTAVYYCLTPPPRRYWGQGILVTVSS
VL: QSVLTQPPSVSGAPGQRVAISCTGSYSNIGAGYDVHWYQQFPGAAPKLLIYAYTNRPAGVPDRFSGSKSGSSASLVISGLQADDEADYYCQSYDARLRDGEVFGGGTKLTV
B4: 4m0368 (antibody, V domains shown)
VH: QVQLQESGPGLVKPSGTLSLTCAVSGGSISGTNWWTWVRQPPGRGLEWIGEIYYRGSPNYNPSLKSRVTISVDQSKSQFSLKLTSVTAADTAVYYCLRLSHYGGAWGQGTLVTVSS
VL: DIQLTQSPSSLSASVGDRVTITCRASQSISTYLNWYQQKPGKAPKFLIFSASNLQSGVPSRFSGGGSGTDFTLTISSLQPEDFATYYCQQTYNTPRTFGQGTKVEIK
B5: 3T0123 (antibody, V domains shown)
VH: QVQLVQSGSEVKKPGASVKVSCQASGYRFANYGISWVRQAPGQGLEWMGWISPLKRDPDYAQNFQGRVTMSRDTSTNTAYMELRGLTSGDTAVYFCARGLGDSYSNAWFVYVFDYWGQGSPVTVSS
VL: EIVMTQSPATLSVSPGERVTLSCRTSQRIHTNLAWYQQKSGQAPRLVMYDAFTRAPGVPARFSGGGSETEFTLTISSLQSEDFALYYCQQYSQRPTFGLGTKLEIK

Each molecule was assayed against EBOV Mayinga (GenBank: NC_002549) (Zaire Ebolavirus (EBOV Mayinga)) (UniProt Q05320) (assay: cell-based or functional assay).
Sequence of UniProt Q05320 (Q05320 33-676 limits assumed): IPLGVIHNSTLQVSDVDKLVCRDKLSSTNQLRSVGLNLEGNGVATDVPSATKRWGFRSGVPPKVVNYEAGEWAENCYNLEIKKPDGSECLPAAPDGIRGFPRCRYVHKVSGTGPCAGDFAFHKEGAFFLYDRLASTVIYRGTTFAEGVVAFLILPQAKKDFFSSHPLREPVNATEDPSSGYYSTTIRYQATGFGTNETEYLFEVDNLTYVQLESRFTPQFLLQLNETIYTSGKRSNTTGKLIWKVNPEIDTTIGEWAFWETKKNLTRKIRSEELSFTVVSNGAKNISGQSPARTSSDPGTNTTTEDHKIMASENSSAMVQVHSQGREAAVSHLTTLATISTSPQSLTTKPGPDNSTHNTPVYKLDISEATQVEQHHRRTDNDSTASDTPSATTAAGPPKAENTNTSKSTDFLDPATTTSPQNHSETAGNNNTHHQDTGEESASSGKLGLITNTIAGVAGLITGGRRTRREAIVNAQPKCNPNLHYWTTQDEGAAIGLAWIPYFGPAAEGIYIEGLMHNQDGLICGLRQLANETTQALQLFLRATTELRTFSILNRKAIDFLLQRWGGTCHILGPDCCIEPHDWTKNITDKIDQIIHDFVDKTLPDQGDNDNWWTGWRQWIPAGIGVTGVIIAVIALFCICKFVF
B1 gave a neutralization concentration (GMC, CPE reduction on Vero C1008 cells) of 0.09 µg/mL.
Molecule B2 has a neutralization concentration (GMC, CPE reduction on Vero C1008 cells) of 0.45 µg/mL.
Work on B3 yielded a neutralization concentration (GMC, CPE reduction on Vero C1008 cells) of 0.44 µg/mL.
B4 gave a neutralization concentration (GMC, CPE reduction on Vero C1008 cells) of 0.13 µg/mL.
For B5, the neutralization concentration (GMC, CPE reduction on Vero C1008 cells) was 0.52 µg/mL.

Molecular target: EBOV Mayinga (GenBank: NC_002549) (Zaire Ebolavirus (EBOV Mayinga)) (UniProt Q05320)
Test: cell-based or functional assay
Remark: another data set of the same source
With mAb114 (antibody) the neutralization concentration (GMC, CPE reduction on Vero C1008 cells) was 0.744 µg/mL.

Reference: patent US20240075139A1
